B1: VEa5 (ssDNA)
DNA: ATACCAGTCTATTCAATTGGGCCCGTCCGTATGGTGGGTGTGCTGGCCAGATAGTATGTGCAATCA
B2: Linker 10 (15-mer-T10-29-mer) (structured_DNA)
DNA: GGTTGGTGTGGTTGGTTTTTTTTTTAGTCCGTGGTAGGGCAGGTTGGGGTGACT

Tests used:
VEGF165 = VEGF165 (Homo sapiens, UniProt P15692-4 27-191); test: SPR
thrombin = thrombin (UniProt P00734;P00734 328-363;364-622); test: SPR

Binder | Kd (VEGF165) | Kd (thrombin)
B1 | 116 nM | 
GGTTGGTGTGGTTGGTTTTTAGTCCGTGGTAGGGCAGGTTGGGGTGACT (structured_DNA) [Linker 5 (15-mer-T5-29-mer)] |  | 0.06 nM
B2 |  | 0.74 nM
GGTTGGTGTGGTTGGAGTCCGTGGTAGGGCAGGTTGGGGTGACT (structured_DNA) [Linker 0 (15-mer-29-mer)] |  | 0.14 nM

Source: article PMC3927496
